In experiment [1] the target is human CD1a expressed on cells (human, UniProt P06126 17-327). As to the kind of experiment: cell-based or functional assay.
Experiment [2] deals with T1, human single-chain CD1a-β2M recombinant protein (Human B2M-CD1a ECD-Avi-His6) (human).
T1 construct: Biotinylated in the HTRF, phage selection and Gyrolab assays; also called human CD1a; CD1a protein
Nature of the experiment: SPR (Biacore), IgG; antigen taken as human CD1a. A general note: Surface plasmon resonance follows binding to a sensor surface in real time, without labels.

human CD1a expressed on cells, sequence (P06126 17-327): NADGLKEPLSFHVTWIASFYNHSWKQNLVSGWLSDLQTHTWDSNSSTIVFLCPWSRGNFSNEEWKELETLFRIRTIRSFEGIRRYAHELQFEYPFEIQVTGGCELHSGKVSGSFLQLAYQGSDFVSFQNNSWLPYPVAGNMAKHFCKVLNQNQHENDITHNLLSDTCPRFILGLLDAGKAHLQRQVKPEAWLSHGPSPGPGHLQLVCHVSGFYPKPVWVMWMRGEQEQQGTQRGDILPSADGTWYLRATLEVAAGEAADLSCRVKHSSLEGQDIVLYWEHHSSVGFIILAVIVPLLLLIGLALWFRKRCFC
T1 sequence (chain, as listed by the source limits assumed): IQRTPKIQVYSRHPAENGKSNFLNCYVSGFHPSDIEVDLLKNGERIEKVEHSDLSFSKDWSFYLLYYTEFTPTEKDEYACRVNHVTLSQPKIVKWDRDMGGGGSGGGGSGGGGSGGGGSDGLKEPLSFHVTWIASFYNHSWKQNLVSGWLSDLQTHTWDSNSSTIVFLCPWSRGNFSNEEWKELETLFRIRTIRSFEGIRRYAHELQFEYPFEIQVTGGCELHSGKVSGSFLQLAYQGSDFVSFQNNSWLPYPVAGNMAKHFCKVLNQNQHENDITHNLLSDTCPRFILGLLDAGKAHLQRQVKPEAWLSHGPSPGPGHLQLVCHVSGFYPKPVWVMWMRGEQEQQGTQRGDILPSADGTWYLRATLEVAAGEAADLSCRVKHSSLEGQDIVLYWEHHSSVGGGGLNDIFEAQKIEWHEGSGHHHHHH

B1: Ab556 (antibody, human IgG1, kappa, V domains shown)
VH: EVQLVESGGGLVQPGGSLRLSCAASGFTFTDHYMHWVRQAPGKGLEWVAFIRNSAGGYTTESNPAVKGRFTISRDNAKNSLYLQMNSLRAEDTAVYYCARETTRIPTGWFAYWGQGTLVTVSS
VL: DIQMTQSPSSLSASVGDRVTITCLASEDIYFDLAWYQQKPGKAPKLLIYGGDRLKEGVPSRFSGSGSGTDYTLTISSLQPEDFATYYCQQSESYPYTFGQGTKLEIKR
notes: Optimized variant of Ab138; human IgG1 effector null / kappa; HC with or without terminal lysine
What is called Kd is the free concentration of one partner at which half of the binding sites on the other are occupied at equilibrium, for simple one-to-one binding. For B1, in experiment [1], the “Inhibition of CD69 expression, IC50” value is 730 pM. Moreover, the Kd in experiment [2] came out at 100 pM.

B2: Ab559 (antibody, human IgG1, kappa, V domains shown)
VH: EVQLVESGGGLVQPGGSLRLSCAASGFTFTDHYMHWVRQAPGKGLEWVAFIRNKAGGYTTESNPAVKGRFTISRDNAKNSLYLQMNSLRAEDTAVYYCARETTTIPTGWFAYWGQGTLVTVSS
VL: DIQMTQSPSSLSASVGDRVTITCLASEDIYFDLAWYQQKPGKAPKLLIYGGDRLKEGVPSRFSGSGSGTDYTLTISSLQPEDFATYYCQQSYSYPYTFGQGTKLEIKR
notes: as for B1
With B2, the “Inhibition of CD69 expression, IC50” value in experiment [1] was 1290 pM. The Kd in experiment [2] stood at 390 pM.

B3: Ab555 (antibody, human IgG1, kappa, V domains shown)
VH: EVQLVESGGGLVQPGGSLRLSCAASGFTFTDHYMHWVRQAPGKGLEWVAFIRNSAGGYTTESNPAVKGRFTISRDNAKNSLYLQMNSLRAEDTAVYYCARETTRIPTGWFAYWGQGTLVTVSS
VL: DIQMTQSPSSLSASVGDRVTITCLASEDIYFDLAWYQQKPGKAPKLLIYGGDRLKEGVPSRFSGSGSGTDYTLTISSLQPEDFATYYCQQSYSYPYTFGQGTKLEIKR
notes: as for B1
Regarding B3, in experiment [1], the “Inhibition of CD69 expression, IC50” value was 990 pM. Also, the Kd in experiment [2] amounted to 270 pM.

B4: Ab504 (antibody, human IgG1, kappa, V domains shown)
VH: EVQLVESGGGLVQPGGSLRLSCAASGFTFTDHYMHWVRQAPGKGLEWVAFIRNKAGGYTTESNPAVKGRFTISRDNAKNSLYLQMNSLRAEDTAVYYCARETTGIPTGWFAYWGQGTLVTVSS
VL: DIQMTQSPSSLSASVGDRVTITCLASEDIYFDLAWYQQKPGKAPKLLIYGGDRLKDGVPSRFSGSGSGTDYTLTISSLQPEDFATYYCQQSESYPYTFGQGTKLEIKR
notes: as for B1
In the case of B4, the “Inhibition of CD69 expression, IC50” value in experiment [1] is 1690 pM. Also, in experiment [2], the Kd was 530 pM.

B5: Ab514 (antibody, human IgG1, kappa, V domains shown)
VH: EVQLVESGGGLVQPGGSLRLSCAASGFTFTDHYMHWVRQAPGKGLEWVAFIRNSAGGYTTESNPAVKGRFTISRDNAKNSLYLQMNSLRAEDTAVYYCARETTRIPTGWFAYWGQGTLVTVSS
VL: DIQMTQSPSSLSASVGDRVTITCLASEDIYFDLAWYQQKPGKAPKLLIYGASTPKDGVPSRFSGSGSGTDYTLTISSLQPEDFATYYCQQSEKYPYTFGQGTKLEIKR
notes: as for B1
On to B5, for which the “Inhibition of CD69 expression, IC50” value in experiment [1] was found to be 990 pM. Also, the Kd in experiment [2] was 280 pM.

B6: Ab491 (antibody, human IgG1, kappa, V domains shown)
VH: EVQLVESGGGLVQPGGSLRLSCAASGFTFTDHYMTWVRQAPGKGLEWVAFIRNKANGYTTESNPAVKGRFTISRDNAKNSLYLQMNSLRAEDTAVYYCARETTGIPTGWFAYWGQGTLVTVSS
VL: DIQMTQSPSSLSASVGDRVTITCLASEDIYFDLAWYQQKPGKAPKLLIYGGDRLKEGVPSRFSGSGSGTDYTLTISSLQPEDFATYYCQQSYSYPYTFGQGTKLEIKR
notes: as for B1
For the molecule B6, the “Inhibition of CD69 expression, IC50” value in experiment [1] turned out to be 1180 pM. In addition, the Kd in experiment [2] stood at 620 pM.

B7: Ab492 (antibody, human IgG1, kappa, V domains shown)
VH: EVQLVESGGGLVQPGGSLRLSCAASGFTFTDHYMTWVRQAPGKGLEWVAFIRNKANGYTTESNPAVKGRFTISRDNAKNSLYLQMNSLRAEDTAVYYCARETTGIPTGWFAYWGQGTLVTVSS
VL: DIQMTQSPSSLSASVGDRVTITCLASEDIYFDLAWYQQKPGKAPKLLIYGGDRLKEGVPSRFSGSGSGTDYTLTISSLQPEDFATYYCQQSESYPYTFGQGTKLEIKR
notes: as for B1
For the molecule B7, in experiment [1], the “Inhibition of CD69 expression, IC50” value was found to be 1180 pM. Further, the Kd in experiment [2] was 770 pM.

Values taken from patent publication US20220112291A1 (Pfizer, published 2022).
